What was measured:
[1] = tested on: tyrosine phosphorylation of STAT proteins in T47-D cells; assay: Tyrosine phosphorylation of STAT proteins in T47-D cells (Example 10); format: cell-based, human
Method: Tyrosine Phosphorylation of STAT Proteins in T47-D cells. This assay is designed to examine the effects of HPRL and hPRL-G129R on signal transduction using T47-D cells as model target cells. Briefly, T47-D cells were plated in 12-well plates. After pre-incubation in serum-free medium for 2–3 hours, cells were exposed to various concentrations of hPRL or hPRL-G129R or a combination of hPRL and hPRL-G129R in serum-free medium. The cells were incubated for 15 min at 37° C., washed once with PBS, and lysed in 200 μl lysis buffer (50 mM Tris-HCl, pH 6.8, 1% SDS, 1% β-mecaptoethanol, 0.1M DTT, 5% sucrose, 100 μM sodium orthovanadate, and 0.6% bromophenol blue). Thirty microliters of cell lysate are then subjected to 4–12.5% SDS-PAGE using the Bio-Rad Protein II system. After electrophoresis, the gels were transferred to a Hybond-ECL membrane (Amersham, Ill.) at 100 volts constant voltage for 2 hrs. Blots were incubated in a blocking solution of 4% BSA (Boehringer Mannheim, Ind.) in rinsing buffer (10 mM Tris-HCl pH 7.5, 75 mM NaCl, 0.1% Tween 20, 1 mM EDTA) for 2 hrs and subsequently washed twice with rinsing buffer for 15 min. Blots were incubated with horseradish peroxidase (HRP)-conjugated antiphosphotyrosine antibody PY20 (Amersham, Ill.) at a concentration of 0.1 μg/ml in the blocking solution for 1 hr. […] Blots were then exposed to X-ray film and developed using standard procedures (Kodak, Rochester, N.Y.).

[2] = tested on: MDA-MB-134 cells; assay: TUNEL assay, MDA-MB-134; format: cell-based, human; settings: 250 ng G129R, 24 hours
Method: Cell Culture. T-47D cells obtained from ATCC were grown in RPMI 1640 (phenol red free), supplemented with 10% FBS (GIBCO BRL). BT-474 cells were grown in RPMI 1640 medium (phenol red free) supplemented with 10% FBS and ATCC recommended supplements. MCF-7 cells were grown in DMEM medium (phenol red free), supplemented with 10% FBS. The cells were grown at 37° C. in a humid atmosphere in the presence of 5% CO2. The MDA-MB-134 cells were grown in Leibovitz's L-15 medium supplemented with 20% FBS and grown in CO2 free atmosphere. The breast cancer cells were trypsinized (0.02% Trypsin—EDTA) and grown in their respective media (phenol red free) supplemented with 10% CSS (Charcoal stripped serum) for a week. Subsequently the cells were trypsinized again and plated onto an 8 chambered slide system (Lab Tek II) at a confluence of 60–70% per chamber. The next day treatments were performed on the breast cancer cells using their respective media(phenol red free), supplemented with 1% CSS. The MDA-MB-134 VI cells were grown in phenol red containing medium, but with the same serum conditions as the other breast cancer cells.
Terminal deoxynucleotidly transferase mediated dUTP nick end labeling (TUNEL) assay. Nicks of the fragmented DNA are labeled at their 3-OH ends. The fluorescein-labeled dUTP is incorporated at the 3-OH ends by using the enzyme terminal deoxynucleotidyl transferase. […]

[3] = tested on: tyrosine phosphorylation of STAT5 protein in T-47D human breast cancer cells; assay: hPRL induction of tyrosine phosphorylation of STAT5 protein (Example 8); format: cell-based
Description: Assay of hPRL induction of tyrosine phosphorylation of STAT5 protein. […] Tyrosyl phosphorylation of STAT 5 is a receptor mediated event and is thought to be an important step in ligand-induced signal transduction (Wakao et al., 1994, EMBO J. 13: 2182–2191; Kazansky et al., 1995, Mol. Endocrinol. 9:1598–1609; Waxman et al., 1995, J. Biol. Chem. 270:13262–13270). This assay was used to evaluate the ability of hPRL and hPRLA to inhibit induction of STAT 5 phosphorylation by wild type PRL.
Briefly, human breast cancer cells were plated in 12-well plates. After pre-incubation in serum-free DMEM for 2–3 hours, the cells were exposed to various concentration of hPRL and hPRLA in serum-free DMEM. The cells were incubated for 15 min at 37° C., washed once with PBS, and lysed in 300 μl lysis buffer (50 mM Tris-HCl, pH 6.8, 1% SDS, 1% β-mecaptoethanol, 0.1M DTT, 5% Sucrose, 100 uM Sodium Orthovanadate, and 0.6% bromphenol blue). Thirty microliters of cell lysates were subjected to 4–12.5% SDS-PAGE and immunoblot analysis using horse radish peroxidase (HRP)-conjugated anti-phosphotyrosine antibody PY20 and ECL reagent kit (Amersham, Ill.). Blots were then exposed to X-ray films and developed using standard procedures (Kodak, Rochester, N.Y.). This assay has been described in Chen et al., 1994, J. Biol. Chem. 269: 15892–15897; Chen et al., 1995, Endocrinol. 136:660–667; Wang et al., 1994, Proc. Natl. Acad. Sci. U.S.A. 91:1391–1395; Chen et al., 1995, Mol. Endocrinol. 9(3):292–302; Harding et al., 1996, J. Biol. Chem. 271(12):6708–6712.

[4] = tested on: prostate cancer cells; assay: TUNEL assay, prostate cancer cells; format: cell-based, human; settings: 250 ng hPRL-G129R, 24 hours
Method: Terminal deoxynucleotidly transferase mediated dUTP nick end labeling (TUNEL) assay. Nicks of the fragmented DNA are labeled at their 3-OH ends. The fluorescein-labeled dUTP is incorporated at the 3-OH ends by using the enzyme terminal deoxynucleotidyl transferase. After the assigned period of treatment the chambers were dismantled as per the manufacturer's instructions and the TUNEL assay (Apoptosis detection system, Fluorescein- Promega) was performed as per the manufacturer's instructions. The slide was examined under a FITC filter using an Olympus IX 70 microscope system.
The samples were in duplicate and each sample constituted about 2 million cells

[5] = tested on: MCF-7 cells; assay: Co-culture with L-G129R cells, MCF-7; format: cell-based, human; settings: MCF-7 co-cultured with L-G129R cells; more hPRL-G129R required than for T47-D
Description: The co-culture experimental set-up provides a sustained presence of biologically active hPRL-G129R, thereby resulting in a maximal response in these tumor cells.

B1: hPRL-G129R: variant of human prolactin having a substitution of the glycine at position 129 with an arginine residue; prolactin receptor antagonist (protein)
chain: LPICPGGAARCQVTLRDLFDRAVVLSHYIHNLSSEMFSEFDKRYTHGRGFITKAINSCHTSSLATPEDKEQAQQMNQKDFLSLIVSILRSWNEPLYHLVTEVRGMQEAPEAILSKAVEIEEQTKRLLERMELIVSQVHPETKENEIYPVWSGLPSLQMADEESRLSAYYNLLHCLRRDSHKIDNYLKLLKCRIIHNNNC
B1 was tested, and the “inhibition of STAT protein phosphorylation induced by hPRL” value ([1]; 5:1 ratio (500 ng/ml hPRL-G129R, 100 ng/ml hPRL)) was “completely inhibited”, the “stimulating STAT protein phosphorylation” value ([1]; T47-D cells, hPRL-G129R alone (100 ng/ml, FIG. 13)) was “not active” and the “block of signal transduction (STAT phosphorylation) induced by hPRL” value ([1]; added together with hPRL) was “block the signal transduction induced by hPRL in a dose dependent manner”. For the same molecule, the “induction of apoptosis DNA fragmentation” value [2] was “induced apoptosis”, the “induction of phosphorylation of STAT5 proteins” value ([3]; T-47D cells, 5 nM of hormone alone, Western blot FIG. 3) was “absent” and the “hPRL-induced phosphorylation of STAT5 proteins in presence of hPRLA” value ([3]; equal amounts: 5 nM hPRL and 5 nM hPRLA (lane 4)) was “partially eliminated”. For the same molecule, the “hPRL-induced phosphorylation of STAT5 proteins in presence of hPRLA” value ([3]; excess of hPRLA: 5 nM hPRL and 25 nM hPRLA (lane 5)) was “undetectable”, the “apoptosis of two prostate cancer cells” value [4] was “underwent apoptosis” and the “inhibition of cell proliferation in co-culture” value [5] was “Complete inhibition”.

— US7115556B2, “Use of anti-prolactin agents to treat proliferative conditions” (Greenville Hospital System, priority 1998, dated 2006)
